Patent US20170254807

Tests used:
[1] = bead aggregation assay, flow cytometry, experiment 1, before the 90 min incubation
[2] = bead aggregation assay, fluorescence microscopy

| Protein | P3 (aggregates) prior to incubation [1] | aggregate size [2] |
| --- | --- | --- |
| Fc-D3 (mBetacam D3 domain, aa 240-335, fused to human IgG1 Fc; pFUSE-Fc-D3) (protein) YGPYGLQVNSDKGLKVGEVFTVDLGEAVLFDCSADSYPPNTYSWIQRSDNTTHVIKHGPHLEVASEKVAQKTADYVCCAYNNITGRRDETRFTVII | P3 prior to incubation is 40.8% |  |
| Fc-D1/D2 (mBetacam D1-D2 domain, aa 33-239, fused to human IgG1 Fc; pFUSE-Fc-D1/D2) (protein) LKVTVPSYTVHGIRGQALYLPVHYGFHTPASDIQIIWLFERSHTMPKYLLGSVNKSVVPDLEYQHKFTMMPPNASLLINPLQFTDEGNYIVKVNIQGNGTLSASQKIQVTVDDPVMKPMVQFHPASGAVEYVGNITLTCQVEGGTRLVYQWRKSGKPISINSSHSFSPQNNTLWIVPVTKEDIGNYTCLVSNPVSEMESDIIMPTIY |  | Aggregates of >100 beads were observed |
